Drawing on patent US11969464B2, “Amidated peptides and their deamidated counterparts displayed by HLA-A*02 for use in immunotherapy against different types of cancers” (Immatics Biotechnologies GmbH, priority 2020, dated 2024), this text covers Peptide exchange for 50 substances.

The target of this assay is HLA-A*02:01 (Homo sapiens, UniProt P04439, D140Y/D185E/D98H/E176V/E277Q/G131W/G231S/I119V/I121R/I166T/I218V/L300P/L318F/N151K/N90K/P208A/P217A/Q86G/Q94H/R138H/R169H/T345S). Put plainly: MHC binding assay (UV-ligand exchange, anti-β2m ELISA). Particulars: peptide exchange yield, binding to HLA-A*02:01. The text has this: Candidate peptides for T cell based therapies according to the present invention were further tested for their MHC binding capacity (affinity). The individual peptide-MHC complexes were produced by UV-ligand exchange, where a UV-sensitive peptide is cleaved upon UV-irradiation and exchanged with the peptide of interest as analyzed. Only peptide candidates that can effectively bind and stabilize the peptide-receptive MHC molecules prevent dissociation of the MHC complexes. To determine the yield of the exchange reaction, an ELISA was performed based on the detection of the light chain (β2m) of stabilized MHC complexes. The assay was performed as generally described in Rodenko et al. (Rodenko et al., 2006).
96 well MAXISorp plates (NUNC) were coated over night with 2 μg/ml streptavidin in PBS at room temperature, washed 4× and blocked for 1 h at 37° C. in 2% BSA containing blocking buffer. Refolded HLA-A*02:01/MLA-001 monomers served as standards, covering the range of 15-500 ng/ml. Peptide-MHC monomers of the UV-exchange reaction were diluted 100-fold in blocking buffer. Samples were incubated for 1 h at 37° C., washed four times, incubated with 2 μg/ml HRP conjugated anti-β2m for 1 h at 37° C., washed again and detected with TMB solution that is stopped with […]. Absorption was measured at 450 nm. Candidate peptides that show a high exchange yield (preferably higher than 50%, most preferred higher than 75%) are generally preferred for a generation and production of antibodies or fragments thereof, and/or T cell receptors or fragments thereof, as they show sufficient avidity to the MHC molecules and prevent dissociation of the MHC complexes.
(In general: In an ELISA, binding on a coated surface is turned into a signal by an enzyme label.)
On to “74 (KILDFTGPLFL; peptide displayed by HLA-A*02) [compound 74]”, for which the Peptide exchange entry is recorded as “++++ (≥75% = ++++)”. The value for “78 (AIDQTITEA; peptide displayed by HLA-A*02) [compound 78]” was “+++ (≥50% = +++)”; that for “15 (VLDDTLVIF; peptide displayed by HLA-A*02) [compound 15]” was “+++ (≥50% = +++)”; that for “1 (ILDSTTIEI; peptide displayed by HLA-A*02) [compound 1]” was “++++ (≥75% = ++++)”. On to “10 (FLGEDISNFL; peptide displayed by HLA-A*02) [compound 10]”, for which the Peptide exchange entry was “++++ (≥75% = ++++)”.

Turning to “49 (ALDDYTITF; peptide displayed by HLA-A*02) [compound 49]”, the Peptide exchange result is recorded as “++++ (≥75% = ++++)”. Turning to “77 (YLHGFDLSL; peptide displayed by HLA-A*02) [compound 77]”, the Peptide exchange entry is “++++ (≥75% = ++++)”. Regarding “68 (RLQDTTIGL; peptide displayed by HLA-A*02) [compound 68]”, the Peptide exchange entry was “++++ (≥75% = ++++)”.

Regarding “12 (FVDEHTIDI; peptide displayed by HLA-A*02) [compound 12]”, the Peptide exchange result was “+++ (≥50% = +++)”. “4 (YVWDRTELL; peptide displayed by HLA-A*02) [compound 4]”: the Peptide exchange entry is “++++ (≥75% = ++++)”. As for “58 (SQDASLLKV; peptide displayed by HLA-A*02) [compound 58]”, the Peptide exchange entry was “+++ (≥50% = +++)”. “17 (NVDSTILNL; peptide displayed by HLA-A*02) [compound 17]”: the Peptide exchange entry is given as “++++ (≥75% = ++++)”.

For the substance “44 (LLDATHQI; peptide displayed by HLA-A*02) [compound 44]”, the Peptide exchange result is given as “++++ (≥75% = ++++)”.

On to “85 (LLDITNPVL; peptide displayed by HLA-A*02) [compound 85]”, for which the Peptide exchange entry is recorded as “++++ (≥75% = ++++)”. Consider “88 (RLLDETVDVTI; peptide displayed by HLA-A*02) [compound 88]”, for which the Peptide exchange entry was “++++ (≥75% = ++++)”. For the substance “73 (ALMDVSQNV; peptide displayed by HLA-A*02) [compound 73]”, the Peptide exchange entry is on record as “++++ (≥75% = ++++)”. “94 (YLWWVNDQSL; peptide displayed by HLA-A*02) [compound 94]”: the Peptide exchange entry was “++++ (≥75% = ++++)”.

With “18 (ILDEAKDISF; peptide displayed by HLA-A*02) [compound 18]”, the Peptide exchange result was “+++ (≥50% = +++)”. The result for “38 (AVDGTDARL; peptide displayed by HLA-A*02) [compound 38]” reads “+++ (≥50% = +++)”. As to “30 (QLMEKVQDV; peptide displayed by HLA-A*02) [compound 30]”, the Peptide exchange entry is “+++ (≥50% = +++)”. On to “70 (SMASFLKDV; peptide displayed by HLA-A*02) [compound 70]”, for which the Peptide exchange result is recorded as “++++ (≥75% = ++++)”. As to “61 (FISDFTMTI; peptide displayed by HLA-A*02) [compound 61]”, the Peptide exchange entry is recorded as “++++ (≥75% = ++++)”. The result for “99 (NLLDHSSMFL; peptide displayed by HLA-A*02) [compound 99]” reads “++++ (≥75% = ++++)”. “66 (LLDDQTVTF; peptide displayed by HLA-A*02) [compound 66]”: the Peptide exchange entry is on record as “+++ (≥50% = +++)”. The result for “20 (SLFAYPLPDV; peptide displayed by HLA-A*02) [compound 20]” reads “++++ (≥75% = ++++)”; that for “24 (QLLGRDISL; peptide displayed by HLA-A*02) [compound 24]”, “++++ (≥75% = ++++)”; that for “71 (YLGAVFDL; peptide displayed by HLA-A*02) [compound 71]”, “++++ (≥75% = ++++)”. Regarding “93 (YLDGTFRLL; peptide displayed by HLA-A*02) [compound 93]”, the Peptide exchange result is listed as “+++ (≥50% = +++)”. Regarding “9 (SLDDSLNEL; peptide displayed by HLA-A*02) [compound 9]”, the Peptide exchange entry is “+++ (≥50% = +++)”. For “62 (FLKDVTAQI; peptide displayed by HLA-A*02) [compound 62]”, the Peptide exchange entry is given as “++++ (≥75% = ++++)”. With “39 (AVFDQTVTVI; peptide displayed by HLA-A*02) [compound 39]”, the Peptide exchange entry is “+++ (≥50% = +++)”. The result for “14 (YIYDGKDMSSL; peptide displayed by HLA-A*02) [compound 14]” reads “+++ (≥50% = +++)”.

“26 (ILYDGSNIQL; peptide displayed by HLA-A*02) [compound 26]”: the Peptide exchange result is “++++ (≥75% = ++++)”. “80 (ALDSSLQLL; peptide displayed by HLA-A*02) [compound 80]”: the Peptide exchange entry was “++++ (≥75% = ++++)”.

As to “95 (KLAPEDLADLTAL; peptide displayed by HLA-A*02) [compound 95]”, the Peptide exchange result is “++++ (≥75% = ++++)”. The result for “90 (VLDGTEVNL; peptide displayed by HLA-A*02) [compound 90]” reads “++++ (≥75% = ++++)”; that for “45 (SLFDDSFSL; peptide displayed by HLA-A*02) [compound 45]”, “++++ (≥75% = ++++)”; that for “102 (WLIDKSMEL; peptide displayed by HLA-A*02) [compound 102]”, “++++ (≥75% = ++++)”. The value for “29 (KLLDLTVRI; peptide displayed by HLA-A*02) [compound 29]” was “++++ (≥75% = ++++)”; that for “42 (IQDTSHLAV; peptide displayed by HLA-A*02) [compound 42]” was “+++ (≥50% = +++)”.

Consider “82 (FLNPDGSDCTL; peptide displayed by HLA-A*02) [compound 82]”, for which the Peptide exchange result is recorded as “++++ (≥75% = ++++)”. As to “40 (FLDQTDETL; peptide displayed by HLA-A*02) [compound 40]”, the Peptide exchange entry is listed as “+++ (≥50% = +++)”. In the case of “33 (ILFDLTHRV; peptide displayed by HLA-A*02) [compound 33]”, the Peptide exchange entry was “++++ (≥75% = ++++)”. On to “72 (ALDSTNSEL; peptide displayed by HLA-A*02) [compound 72]”, for which the Peptide exchange entry was “++++ (≥75% = ++++)”. In the case of “56 (LLDSTAHLL; peptide displayed by HLA-A*02) [compound 56]”, the Peptide exchange result is reported as “++++ (≥75% = ++++)”.

As to “43 (KLLNDLTSI; peptide displayed by HLA-A*02) [compound 43]”, the Peptide exchange result is recorded as “++++ (≥75% = ++++)”. Consider “60 (TLDITIVNL; peptide displayed by HLA-A*02) [compound 60]”, for which the Peptide exchange result is listed as “++++ (≥75% = ++++)”. Turning to “27 (YLFEDISQL; peptide displayed by HLA-A*02) [compound 27]”, the Peptide exchange entry is “++++ (≥75% = ++++)”. Regarding “84 (KMLDETVLV; peptide displayed by HLA-A*02) [compound 84]”, the Peptide exchange entry is “+++ (≥50% = +++)”.

On to “53 (ILTDITGHDV; peptide displayed by HLA-A*02) [compound 53]”, for which the Peptide exchange entry was “+++ (≥50% = +++)”.
